Columns and labels:
ASK1 [1] = assay: Trx-induced ASK1 ubiquitination and degradation in transfected BAEC (Western blot, IP/anti-Ub); assay type: cell-based, Bovine; conditions: for ASK1 poly-ubiquitination / endogenous ASK1 protein level: BAEC transfected with Trx construct vs control vector; for endogenous ASK1 protein level: Western blot anti-ASK1
Procedure: Transfection Transfection of EC was performed by Lipofectamine2000 according to manufacturer's protocol (Gibco). Cells were cultured at 90% confluence in 6-well plates and were transfected with total 4 μg plasmid constructs as indicated. Cells were harvested at 36-48 h post-transfection and cell lysates were used for protein assays.
(§1) Immunoprecipitation and immunoblotting EC after various treatments were washed twice with cold PBS and lysed in 1.5 ml of cold lysis buffer (50 mM Tris-HC, pH 7.6, 150 mM NaCl, 0.1% Triton X-100, 0.75% Brij 96, 10 μg/ml aprotinin, 10 μg/ml leupeptin, 2 mM PMSF, 1 mM EDTA) for 20 min on ice. Protein concentrations were determined with a Bio-Rad kit. For immunoprecipitation to analyze protein interaction in vivo, 400 μg of cell lysate supematant were incubated with 5 μg of the first protein-specific antiserum (e.g. anti-Trx from Medical & Biological Laboratory) for 2 h with 50 μl of GammaBind plus Sepharose. Immune complexes were collected after each immunoprecipitation by centrifugation at 14,000× g for 10 min followed by 4 washes with lysis buffer. The immune complexes were subjected to Western blot with the second protein (e.g., ASK1)-specific antibody (Santa Cruz Biotech, Santa Cruz, Calif.). The chemiluminescence was detected using an ECL kit according to the instructions of the manufacturer (Amersham Life Science, Arlington Heights, Ill.). For Flag-tagged and HA-tagged proteins, anti-Flag M2 antibody (Sigma) and anti-HA antibody (Roche Diagnostics) were used, respectively.
Trx induces ASK1 ubiquitination and degradation in EC. To determine if Trx affects ASK1 protein stability, BAEC were transfected with Trx-expressing plasmid or a control vector (VC) with Lipofactamine2000. Transfection efficiency was determined by transfection of a GFP construct under a fluorescence microscope and usually reached 90% in BAEC and 10% in HUVEC. The high transfection efficiency in BAEC allowed us to examine effects of transgene on endogenous ASK1. Endogenous ASK1 was determined by Western blot with anti-ASK1. […] The high molecular bands are usually ubiquitination of target proteins for degradation (Laney J D et al. Substrate targeting in the ubiquitin system. Cell 97:427-30 (1999)). […] The ubiquitination of ASK1 was also confirmed by co-expression of ASK1 and HA-tag Ub (Treier et al. Ubiquitin-dependent c-Jun degradation in vivo is mediated by the delta domain. Cell 78:787-98 (1994)).

ASK1 [2] = assay: Association of Trx with ASK1 in vivo in BAEC (co-immunoprecipitation); assay type: binding, Bovine; conditions: for association of Flag-Trx with HA-ASK1 after TNF treatment: TNF 10 ng/ml for 15 min; for binding of Flag-Trx to HA-ASK1: resting EC, co-immunoprecipitation
Procedure: as §1
Target sequence in this assay (Q99683 whole entry): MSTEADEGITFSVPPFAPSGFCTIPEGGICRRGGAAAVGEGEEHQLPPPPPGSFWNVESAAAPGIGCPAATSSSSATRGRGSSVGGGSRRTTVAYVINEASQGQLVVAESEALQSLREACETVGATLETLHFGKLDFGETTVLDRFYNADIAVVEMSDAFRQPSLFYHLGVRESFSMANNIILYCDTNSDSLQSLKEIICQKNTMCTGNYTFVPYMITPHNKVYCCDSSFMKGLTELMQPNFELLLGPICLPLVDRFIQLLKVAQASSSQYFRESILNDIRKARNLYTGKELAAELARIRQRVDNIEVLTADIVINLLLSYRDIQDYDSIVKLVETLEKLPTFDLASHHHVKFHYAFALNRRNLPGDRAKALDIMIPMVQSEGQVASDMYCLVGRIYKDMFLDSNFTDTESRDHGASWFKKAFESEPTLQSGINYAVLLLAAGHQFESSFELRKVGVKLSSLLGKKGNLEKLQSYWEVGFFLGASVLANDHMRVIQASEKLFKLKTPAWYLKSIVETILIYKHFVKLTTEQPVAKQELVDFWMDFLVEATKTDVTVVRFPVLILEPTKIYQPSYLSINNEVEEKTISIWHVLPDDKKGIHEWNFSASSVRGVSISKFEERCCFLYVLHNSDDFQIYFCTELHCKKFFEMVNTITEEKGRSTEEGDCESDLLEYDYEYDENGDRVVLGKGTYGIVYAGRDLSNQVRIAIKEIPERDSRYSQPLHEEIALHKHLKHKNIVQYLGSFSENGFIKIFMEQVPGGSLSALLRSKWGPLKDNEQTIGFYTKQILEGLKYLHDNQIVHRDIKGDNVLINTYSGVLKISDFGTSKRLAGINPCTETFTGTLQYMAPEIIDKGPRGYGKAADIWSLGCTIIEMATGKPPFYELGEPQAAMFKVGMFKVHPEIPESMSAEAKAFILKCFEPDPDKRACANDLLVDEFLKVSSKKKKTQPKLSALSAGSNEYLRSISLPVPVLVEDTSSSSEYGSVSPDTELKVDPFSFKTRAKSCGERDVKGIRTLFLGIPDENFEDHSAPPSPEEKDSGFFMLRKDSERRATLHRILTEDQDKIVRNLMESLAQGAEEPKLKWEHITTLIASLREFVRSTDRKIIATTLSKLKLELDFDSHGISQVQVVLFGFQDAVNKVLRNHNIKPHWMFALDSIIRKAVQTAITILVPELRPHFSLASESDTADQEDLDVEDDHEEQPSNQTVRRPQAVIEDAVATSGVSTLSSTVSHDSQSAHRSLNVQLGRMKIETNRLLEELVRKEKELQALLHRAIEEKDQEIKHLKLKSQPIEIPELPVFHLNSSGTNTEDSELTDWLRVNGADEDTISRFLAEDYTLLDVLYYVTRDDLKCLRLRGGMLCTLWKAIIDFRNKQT
TNF dissociates wild type Trx but not Trx-C32S or Trx-C35Sfroin ASK1 in vivo. Trx-C32S and Trx-C35S were examiner to determine whether they constitutively bind to ASK1 in vivo. Regulation of ASK1 by Trx was first examined to determine if such regulation is ROS-dependent in EC. BAEC were either untreated or treated with N-acetyl-cysteine (Nac, 1 mM) or vehicle for 60 min prior to TNF-α (10 ng/ml) stimulation for 15 min. TNF-induced ASK1 activation was measured by an in vitro kinase assay using GST-MKK4 (JNKK1) fusion protein as a substrate. TNF activated ASK1 in EC (FIG. 5A). […] Association of ASK1 with Trx was easily detected in untreated EC cells (FIG. 5B, Ctrl). […] In contrast, Nac pretreatment prevented TNF-induced dissociation of ASK1 from Trx. Similar results were obtained in human EC (HUVEC).
To examine association of Trx mutants with ASK1 in vivo, the Flag-tagged Trx construct (WT, CS, C32S or C35S) was co-transfected with HA-ASK1 into BAEC and the interaction of these Trx proteins with ASK1 were examined by co-immunoprecipitation assay. As expected, Trx-WT, Trx-C32S and Trx-Trx-C35S (but not Trx-CS) bound to ASK1 in resting EC (FIG. 5C).

Akt = assay: ASK1-induced inhibition of IGF1-induced Akt phosphorylation in EC (Western blot p-Ser473); assay type: cell-based, Bovine; conditions: co-expression with ASK1, IGF1 10 ng/ml for 10 min
Procedure: EC were transfected with plasmids as indicated: control vector (VC), HA-Akt, HA-ASK1 with different Trx constructs. Cells were treated with IGF1 (10 ng/ml for 10 min). Akt hosphorylation was examined by western blot with phospho-Akt (Ser473)-specific antibody (p-Akt). Akt and ASK1 expression were determined by western blot with anti-HA.
To determine a role of ASK1 in ROS/TNF-induced IR (impairment of insulin/IGF1 signaling) in EC, the effects of ASK1 activation on IGF1-induced phosphorylation of IRS-1, Akt and eNOS activity were examined. IGF-1 was chosen because cultured EC express IGF1 receptor at higher level than that of insulin receptor. BAEC were transfected with VC or ASK1 expression construct, cells were treated with IGF1 (10 ng/ml) for indicated time. SOCS3 was used as a control which has been shown as a suppressor of IRS-1 activation. Activation (tyrosine phosphorylation) of IRS-1 was determined by IP/Western blot with anti-phosphotyrosine. Akt phosphorylation at Ser-473, a hallmarker for Atk activity was determined by Western blot with p-Ser473-specific antibody. The eNOS enzymatic activity was also by an enzymatic assay based on the conversion of 3H-L-arginine to 3H-citrulline (Calbiochem, Nitric Oxide Synthase Assay Kit).
To determine if Trx protects ASK1-induced inhibition on IGF1 signaling, Trx and ASK1 were coexpressed as in the above experiments. […] To test this, the effects of TZDs (insulin-sensitizers) and statins on ASK1 activity were tested. […] Inhibition of ASK1 may due to their anti-oxidant activities of these drugs which may be indirect by inhibiting TNF-dependent generation of ROS.

Molecule | ubiquitination and degradation of ASK1-ΔN (ASK1 [1]; BAEC co-transfected with ASK1-ΔN (lacks N-terminal Trx-binding domain)) | ASK1 poly-ubiquitination (ASK1 [1]) | endogenous ASK1 protein level (ASK1 [1]) | endogenous ASK1 protein level (ASK1 [1]; listed as Trx) | ASK1 poly-ubiquitination (ASK1 [1]; listed as Trx) | association of Flag-Trx with HA-ASK1 after TNF treatment (ASK1 [2]) | binding of Flag-Trx to HA-ASK1 (ASK1 [2]) | ASK1-induced reduction of Akt phosphorylation (Akt)
thioredoxin (protein, Flag tag or GST fusion, Flag-tagged or GST fusion) MVKQIESKTAFQEALDAAGDKLVVVDFSATWCGPCKMIKPFFHSLSEKYSNVIFLEVDVDDCQDVASECEVKCMPTFQFFKKGQKVGEFSGANKEKLEATINELV | did not induce ubiquitination and degradation | increased ASK1 poly-ubiquitination | decrease in ASK1 protein | decreased protein level of ASK1 | significantly increased ASK1 ubiquitination | completely dissociated | bound to ASK1 | prevents
Trx-C32S: C32S single mutant of Trx at the catalytic site, SEQ ID NO:2 (protein) MVKQIESKTAFQEALDAAGDKLVVVDFSATWSGPCKMIKPFFHSLSEKYSNVIFLEVDVDDCQDVASECEVKCMPTFQFFKKGQKVGEFSGANKEKLEATINELV | – | increased ASK1 poly-ubiquitination | decrease in ASK1 protein | – | – | not reduced | bound to ASK1 | prevents
Trx-C35S: C35S single mutant of Trx at the catalytic site, SEQ ID NO:3 (protein) MVKQIESKTAFQEALDAAGDKLVVVDFSATWCGPSKMIKPFFHSLSEKYSNVIFLEVDVDDCQDVASECEVKCMPTFQFFKKGQKVGEFSGANKEKLEATINELV | – | increased ASK1 poly-ubiquitination | decrease in ASK1 protein | – | – | not reduced | bound to ASK1 | prevents

From patent US20060148057A1, “Thioredoxin mutants and uses thereof” (priority 2002, published 2006)
